These results are taken from article PMC8919572.

Test [1] concerns the target Dual Signaling Protein 107 (DSP107) (human) (UniProt P78324). As to the kind of experiment: SEC-MALS; purified DSP107 in solution.
Test [2] concerns the target 4-1BB on HT1080.4-1BB cells (UniProt Q07011). As to the kind of experiment: cell doublet formation by flow cytometry; mixed CFSE stained CHO.CD47 and CytoLightRed stained HT1080.4-1BB cells with 5 μg/ml DSP107; doublets as double-positive events; blocking with CD47 mAb or soluble 4-1BBL. For orientation: In flow cytometry, cells or beads pass a laser one at a time.
Test [3] deals with human CD47 expressed on CHO-K1 cells (human) (UniProt Q08722). The test is described as above.
Test [4] addresses human CD47:Fc protein (human) (UniProt Q08722). As to the kind of experiment: ELISA; dual-binding ELISA: human CD47:Fc as capture, DSP107 titrated, human biotinylated-4-1BB as detector; three separately produced batches of DSP107. For orientation: An ELISA detects its analyte on a solid surface through an enzyme-linked reagent.
The target of test [5] is human 4-1BB (surface plasmon resonance) (human) (UniProt Q07011). Description: SPR; orientation and conditions not given (Table S2, supplementary methods).
Test [6] deals with human CD47 (surface plasmon resonance) (human) (UniProt Q08722). The test is described as above.
Test [7] addresses cynomolgus 4-1BB (cynomolgus). Described as above.
Test [8] has as its target cynomolgus CD47 (cynomolgus). The test is described as above.

human CD47 (surface plasmon resonance) (human), sequence (Q08722 19-323): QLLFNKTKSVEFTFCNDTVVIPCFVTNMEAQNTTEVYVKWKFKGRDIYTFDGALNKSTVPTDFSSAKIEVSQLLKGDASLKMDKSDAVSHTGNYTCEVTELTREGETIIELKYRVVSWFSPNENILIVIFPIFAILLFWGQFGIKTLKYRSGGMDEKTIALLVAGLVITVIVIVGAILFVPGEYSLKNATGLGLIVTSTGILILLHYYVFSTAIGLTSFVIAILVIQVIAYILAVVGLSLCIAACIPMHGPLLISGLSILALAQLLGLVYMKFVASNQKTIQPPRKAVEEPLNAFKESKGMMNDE
human CD47 expressed on CHO-K1 cells (human), sequence (Q08722 19-323): as above
4-1BB on HT1080.4-1BB cells, sequence (Q07011 24-255): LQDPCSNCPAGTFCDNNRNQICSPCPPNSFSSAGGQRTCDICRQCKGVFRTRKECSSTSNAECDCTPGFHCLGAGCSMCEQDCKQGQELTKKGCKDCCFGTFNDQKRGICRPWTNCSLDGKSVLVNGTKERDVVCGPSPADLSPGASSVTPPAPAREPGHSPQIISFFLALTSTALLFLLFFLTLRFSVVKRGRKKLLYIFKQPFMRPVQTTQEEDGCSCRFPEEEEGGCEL
human 4-1BB (surface plasmon resonance) (human), sequence (Q07011 24-255): as above

A word on the stoichiometry N: it is a count of units in the complex or per binding partner. In general, EC50 refers to the concentration needed to bring the measured effect to its halfway point. A lower EC50 goes with greater potency. As usually defined, the Kd is a measure of binding affinity in units of concentration. “Dual Signaling Protein 107 (DSP107) (from UniProt P78324 31-373; P41273 50-254)”: the stoichiometry N in test [1] was determined as 3. Moreover, the percent doublets of CHO-K1.CD47 and HT1080.4-1BB cells in test [2] and in test [3] was 25% throughout. Besides, the EC50 in test [4] stood at 0.94 nM. Further, the Kd in test [5] worked out at 0.7 nM; in test [6], 1.17 nM; in test [7], 0.34 nM; in test [8], 1.75 nM.
